Laboratory results as given in paper PMC11352460, “RILP Induces Cholesterol Accumulation in Lysosomes by Inhibiting Endoplasmic Reticulum–Endolysosome Interactions” (Cells, 2024).
Values belong to the binder of their own block, whether it stands above or below them.

Legend:
His-ORP1L = target: T1, His-ORP1L (UniProt Q9BXW6-1 1-950); assay: pull-down; in vitro binding: purified prokaryotic expressed His-ORP1L or His-ORP1L(336-950aa) with increasing amounts of His-RILP, incubated with GST-VAPa(1-225aa) retained on GST beads; ORP1L bound assessed by Western blot; conditions: both partners purified
T1 construct: ORP1L in pET-28a; source: prokaryotic expressed, purified
T1 sequence (looked up): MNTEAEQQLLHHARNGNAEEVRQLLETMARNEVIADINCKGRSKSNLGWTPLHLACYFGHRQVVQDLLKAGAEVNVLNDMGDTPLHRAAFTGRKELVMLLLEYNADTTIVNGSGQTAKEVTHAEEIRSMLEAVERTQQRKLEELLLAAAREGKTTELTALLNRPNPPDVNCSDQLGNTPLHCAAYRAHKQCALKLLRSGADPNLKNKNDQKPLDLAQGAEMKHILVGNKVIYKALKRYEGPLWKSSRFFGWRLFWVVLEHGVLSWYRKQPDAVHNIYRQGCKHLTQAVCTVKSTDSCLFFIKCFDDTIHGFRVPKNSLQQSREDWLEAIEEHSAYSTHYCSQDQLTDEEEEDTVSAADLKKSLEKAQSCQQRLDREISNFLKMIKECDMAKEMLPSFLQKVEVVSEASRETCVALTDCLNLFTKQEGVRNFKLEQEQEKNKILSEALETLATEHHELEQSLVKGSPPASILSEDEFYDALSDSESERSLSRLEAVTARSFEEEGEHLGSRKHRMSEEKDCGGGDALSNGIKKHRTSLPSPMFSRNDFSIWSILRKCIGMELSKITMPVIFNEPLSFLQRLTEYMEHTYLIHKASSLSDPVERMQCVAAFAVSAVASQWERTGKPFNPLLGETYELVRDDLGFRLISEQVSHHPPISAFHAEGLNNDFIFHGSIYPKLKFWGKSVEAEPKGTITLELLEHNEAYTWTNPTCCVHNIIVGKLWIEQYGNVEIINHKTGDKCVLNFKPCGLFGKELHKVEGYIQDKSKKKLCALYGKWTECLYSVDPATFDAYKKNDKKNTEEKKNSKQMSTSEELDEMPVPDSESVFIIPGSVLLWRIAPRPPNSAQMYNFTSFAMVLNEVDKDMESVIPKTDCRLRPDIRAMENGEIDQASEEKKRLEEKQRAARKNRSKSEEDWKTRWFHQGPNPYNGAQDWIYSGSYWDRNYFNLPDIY

His-ORP1L(336-950aa) = target: T2, His-ORP1L(336-950aa) (UniProt Q9BXW6-1 336-950); assay: as above; conditions: both partners purified
T2 construct: source: prokaryotic expressed, purified
T2 sequence (looked up): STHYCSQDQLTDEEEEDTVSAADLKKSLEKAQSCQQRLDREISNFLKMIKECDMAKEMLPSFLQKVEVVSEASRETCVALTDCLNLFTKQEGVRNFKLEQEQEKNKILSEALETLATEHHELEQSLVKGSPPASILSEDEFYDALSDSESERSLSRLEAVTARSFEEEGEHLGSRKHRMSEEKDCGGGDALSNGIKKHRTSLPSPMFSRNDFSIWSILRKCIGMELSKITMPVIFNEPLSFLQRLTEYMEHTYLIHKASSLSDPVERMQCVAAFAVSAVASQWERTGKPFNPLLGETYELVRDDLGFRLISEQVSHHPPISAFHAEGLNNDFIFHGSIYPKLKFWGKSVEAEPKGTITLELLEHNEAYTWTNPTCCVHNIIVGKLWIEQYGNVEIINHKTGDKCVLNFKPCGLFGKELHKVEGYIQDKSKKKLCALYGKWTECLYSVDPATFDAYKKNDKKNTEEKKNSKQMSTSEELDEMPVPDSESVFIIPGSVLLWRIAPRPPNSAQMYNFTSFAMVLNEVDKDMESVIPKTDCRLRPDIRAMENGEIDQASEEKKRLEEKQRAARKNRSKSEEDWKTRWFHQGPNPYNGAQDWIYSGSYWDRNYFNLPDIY

binding result (His-ORP1L): binds | binding result (His-ORP1L(336-950aa)): binds
B1: GST-VAPa(1-225aa) (domain or fragment, UniProt Q9P0L0 1-225, looked up)
chain: MASASGAMAKHEQILVLDPPTDLKFKGPFTDVVTTNLKLRNPSDRKVCFKVKTTAPRRYCVRPNSGIIDPGSTVTVSVMLQPFDYDPNEKSKHKFMVQTIFAPPNTSDMEAVWKEAKPDELMDSKLRCVFEMPNENDKLNDMEPSKAVPLNASKQDGPMPKPHSVSLNDTETRKLMEECKRLQGEMMKLSEENRHLRDEGLRLRKVAHSDKPGSTSTASFRDNVT
notes: VAP-A (vesicle-associated membrane protein-associated protein A) residues 1-225, the cytoplasmic region; subcloned into pGEX-4T-1; also called GST-tagged VAP-A(1-225aa); source: prokaryotic expressed, retained on GST beads (GST-Sepharose 4B resin)

binding result (His-ORP1L(336-950aa)): binds
B2: His-RILP (natural protein, UniProt Q96NA2 1-401, looked up)
chain: MEPRRAAPGVPGWGSREAAGSASAAELVYHLAGALGTELQDLARRFGPEAAAGLVPLVVRALELLEQAAVGPAPDSLQVSAQPAEQELRRLREENERLRRELRAGPQEERALLRQLKEVTDRQRDELRAHNRDLRQRGQETEALQEQLQRLLLVNAELRHKLAAMQTQLRAAQDRERERQQPGEAATPQAKERARGQAGRPGHQHGQEPEWATAGAGAPGNPEDPAEAAQQLGRPSEAGQCRFSREEFEQILQERNELKAKVFLLKEELAYFQRELLTDHRVPGLLLEAMKVAVRKQRKKIKAKMLGTPEEAESSEDEAGPWILLSDDKGDHPPPPESKIQSFFGLWYRGKAESSEDETSSPAPSKLGGEEEAQPQSPAPDPPCSALHEHLCLGASAAPEA
notes: RILP in pET-28a; source: prokaryotic expressed, purified
